Target: cytosolic fragment of the McpN chemoreceptor (Pseudomonas aeruginosa PAO1)
Assay: ITC

In the case of CheV D238E (natural protein), the KD of the first binding event (high affinity, endothermic) is reported as 0.008 µM, the KD of the second binding event (lower affinity, exothermic) is reported as 3 µM and the N of the first binding event is reported as 0.5.
